Measurements as given in patent US20140357838A1, “N-Terminally Modified Insulin Derivatives” (Novo Nordisk A/S, priority 2011, published 2014).
Starred links: 1 amine or outer side, 2 acyl side, 3 side chain; linkers in the order of their positions; H or OH if unused. Positions of bridges follow the written chain, without caps; N, C: chain ends. Groups on a side chain read outwards from the residue. Chains are numbered I, II in the order given. No end group written: not given here. *: point of attachment. Phe(Nα-CONH2) = NC(=O)N[C@@H](Cc1ccccc1)C(=O)*; C20 diacid = O=C(O)CCCCCCCCCCCCCCCCCCC(=O)*; C18 diacid = O=C(O)CCCCCCCCCCCCCCCCC(=O)*; NMe2Phe = CN(C)[C@@H](Cc1ccccc1)C(=O)*; γGlu = O=C(O)[C@H](CCC(=O)[*:2])N[*:1]; Hydantoyl = NC(=O)NCC(=O)*; AEEA = NCCOCCOCC(=O)O; Me2Gly = CN(C)CC(=O)*

How the values were obtained:
[1] = Chemical stability of insulin derivatives in 2 mM phosphate (SEC-HPLC and RP-HPLC); assay type: physicochemical; details: 4 weeks 37° C. minus 5° C. start sample; for Chemical degradation (%) (4 weeks 37° C.- 0 weeks 5° C.): pH 7.5, RP-HPLC; for HMWP Formation (%) (4 weeks 37° C.- 0 weeks 5° C.): pH 7.5, SEC-HPLC
Experimental: Chemical stability of an insulin derivative is assessed after incubating insulin derivative in 2 mM phosphate, pH=7.5 at 37° C. for up to 8 weeks. Formation of high molecular weight products (HMWP) is determined by SEC HPLC analysis after 0, 2, 4 and optionally 8 weeks. The results of the SEC method are given as a difference between HMWP formation at 37° C. and 5° C. start sample as a percentage of total absorbance at 215 nm. Chemical degradation products are determined by RP HPLC analysis after 0, 2, 4 and optionally 8 weeks. The results of the RP method are given as a difference between chemical degradation observed at 37° C. and 5° C. start sample as a percentage of total absorbance at 215 nm.
• Solvent: 500 mM NaCl, 10 mM NaH2PO4, 5 mM H3PO4, 50% (v/v) 2-propanol • Flow: 0.5 ml/min • Run time: 30 min • UV Detection: 215 nm • Column: Insulin HMWP column from Waters 7.8×300 mm • Temperature: 50° C.
• Solvent A: 0.09M phosphate buffer pH 3.6 (di-ammoniumhydrogenphosphate), 10% MeCN (v/v) • Solvent B: 80% MeCN (v/v %) • Flow: 0.3 ml/min • Runtime: 33 min • UV Detection: 215 nm • Column: Waters Acquity BEH130 C18 Column 1.7 μm, 150×2.1 mm • Temperature: 50° C. • Gradient: […]

[2] = target: T1, human insulin receptor (Homo sapiens, UniProt P06213); experiment: Insulin receptor affinity, SPA assay with […] HSA in binding buffer; details: relative to the affinity of human insulin
Experimental: (§1) SPA-PVT antibody-binding beads, anti-mouse reagent (Amersham Bio-sciences, Cat No. PRNQ0017) are mixed with 25 ml of binding buffer (100 mM HEPES pH 7.8; 100 mM sodium chloride, 10 mM MgSO4, 0.025% Tween-20). […] A total of 100 μl reagent mix is then added to each well in the Packard Optiplate and a dilution series of the N-terminally modified insulin is made in the Optiplate from appropriate samples. The samples are then incubated for 16 hours while gently shaken. The phases are the then separated by centrifugation for 1 min and the plates counted in a Topcounter.

[3] = target: T1, human insulin receptor; experiment: Insulin receptor affinity, SPA antibody capture assay (0% HSA); assay type: binding; details: relative to the affinity of human insulin
Experimental: as §1

[4] = Hydrophobicity by isocratic reverse phase HPLC; assay type: physicochemical; details: k'rel, isocratic RP-HPLC, pH 7.3, human insulin = 1
Experimental: The hydrophobicity of an N-terminally modified insulin is found by reverse phase HPLC run under isocratic conditions. […] The hydrophobicity, k′rel, is calculated as: k′relderiv=((tderiv−t0)(tref−t0)*k′relref. Using HI as reference: k′relref=k′relHI=1. The void time of the HPLC system, t0, is determined by injecting 5 μl of 0.1 mM NaNO3. Running conditions:
Column: Lichrosorb RP-C18, 5 μm, 4×250 mm
Buffer A: 0.1 M natrium phosphate pH 7.3, 10 vol % CH3CN
After running an initial gradient, the isocratic level for running the derivative and reference (for example HI) is chosen, and the elution times of the derivative and reference under isocratic conditions are used in the above equation to calculate k′relderiv.

T1 sequence (P06213 28-746 isoform P06213-2 limits assumed): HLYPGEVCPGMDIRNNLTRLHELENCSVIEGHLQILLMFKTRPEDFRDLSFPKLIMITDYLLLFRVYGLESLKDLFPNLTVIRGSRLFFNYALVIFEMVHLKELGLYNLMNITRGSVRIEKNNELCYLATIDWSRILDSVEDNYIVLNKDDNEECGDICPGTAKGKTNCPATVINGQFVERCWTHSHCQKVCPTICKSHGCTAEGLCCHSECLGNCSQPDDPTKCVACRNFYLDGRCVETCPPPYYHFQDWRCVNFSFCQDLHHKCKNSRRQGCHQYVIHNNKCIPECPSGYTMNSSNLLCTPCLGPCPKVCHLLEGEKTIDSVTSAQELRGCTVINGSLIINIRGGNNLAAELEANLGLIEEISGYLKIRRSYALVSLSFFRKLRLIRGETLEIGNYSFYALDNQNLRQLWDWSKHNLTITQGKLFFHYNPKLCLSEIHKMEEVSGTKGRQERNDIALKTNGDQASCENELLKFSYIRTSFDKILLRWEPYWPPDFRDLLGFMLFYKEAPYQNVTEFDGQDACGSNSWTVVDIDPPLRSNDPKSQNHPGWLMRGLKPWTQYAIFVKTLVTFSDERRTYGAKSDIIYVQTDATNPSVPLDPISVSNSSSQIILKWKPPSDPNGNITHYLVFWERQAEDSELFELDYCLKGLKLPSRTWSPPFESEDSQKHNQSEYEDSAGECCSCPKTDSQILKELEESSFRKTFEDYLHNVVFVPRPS
T1 sequence (P06213 763-1382 partner limits assumed): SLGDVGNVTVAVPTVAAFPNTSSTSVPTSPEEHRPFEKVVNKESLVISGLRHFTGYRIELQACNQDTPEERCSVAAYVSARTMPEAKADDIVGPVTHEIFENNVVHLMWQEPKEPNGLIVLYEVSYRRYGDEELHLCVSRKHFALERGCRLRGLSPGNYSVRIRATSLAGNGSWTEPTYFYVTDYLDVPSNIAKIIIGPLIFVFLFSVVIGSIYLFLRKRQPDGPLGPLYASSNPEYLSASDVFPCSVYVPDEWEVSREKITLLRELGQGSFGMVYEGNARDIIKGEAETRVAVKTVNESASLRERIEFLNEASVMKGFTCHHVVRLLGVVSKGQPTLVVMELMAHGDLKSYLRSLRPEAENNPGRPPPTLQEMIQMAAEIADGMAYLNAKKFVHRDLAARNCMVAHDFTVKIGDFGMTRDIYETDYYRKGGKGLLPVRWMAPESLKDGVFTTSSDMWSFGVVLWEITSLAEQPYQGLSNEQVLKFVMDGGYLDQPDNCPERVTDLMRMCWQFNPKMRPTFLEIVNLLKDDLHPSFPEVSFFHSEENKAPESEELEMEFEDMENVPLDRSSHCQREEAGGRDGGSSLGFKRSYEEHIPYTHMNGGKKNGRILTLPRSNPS

| Substance | Chemical degradation (%) (4 weeks 37° C.- 0 weeks 5° C.) [1] | HMWP Formation (%) (4 weeks 37° C.- 0 weeks 5° C.) [1] | Relative IR-A affinity (@ […] HSA) (%)e [2] [%] | Relative IR-A affinity (@ 0% HSA) (%) [3] [%] | Hydrophobicity rel. to human insulin [4] |
| --- | --- | --- | --- | --- | --- |
| I: Me2Gly-VCQHLCGSHLVEALHLVCGERGFHYTPK([γGlu-C18 diacid]) / II: Me2Gly-IVEQCCTSCCSLEQLENYCN (disulfide I:2-II:9, I:6-II:6, I:18-II:19, II:5-II:10) [Example 8, A1(N^α,N^α-Dimethyl), A10C, A14E, B1G(N^α,N^α-dimethyl), B3C, B16H, B25H, B29K(N^εoctadecanedioyl-gGlu), desB30 Human Insulin] | 66.4 | 54.5 |  |  |  |
| I: Me2Gly-VCQHLCGSHLVEALYLVCGERGFFYPK([AEEA-AEEA-γGlu-C18 diacid]) / II: Me2Gly-IVEQCCTSCCSLEQLENYCN (disulfide I:2-II:9, I:6-II:6, I:18-II:19, II:5-II:10) [Example 14, A1(N^α,N^α-Dimethyl), A10C, A14E, B1G(N^α,N^α-dimethyl), B3C, desB27, B29K(N^εoctadecanedioyl-gGlu-2×OEG), desB30 Human Insulin] |  | 0.0 |  |  |  |
| I: Me2Gly-VCQHLCGSHLVEALYLVCGERGFFYPK([γGlu-C18 diacid]) / II: Me2Gly-IVEQCCTSCCSLEQLENYCN (disulfide I:2-II:9, I:6-II:6, I:18-II:19, II:5-II:10) [Example 9, A1(N^α,N^α-Dimethyl), A10C, A14E, B1G(N^α,N^α-dimethyl), B3C, desB27, B29K(N^εoctadecanedioyl-gGlu), desB30 Human Insulin] | 5.7 |  |  |  |  |
| I: Me2Gly-VCQHLCGSHLVEALYLVCGERGFHYPK([AEEA-AEEA-γGlu-C18 diacid]) / II: Me2Gly-IVEQCCTSCCSLEQLENYCN (disulfide I:2-II:9, I:6-II:6, I:18-II:19, II:5-II:10) [Example 15, A1(N^α,N^α-Dimethyl), A10C, A14E, B1G(N^α,N^α-dimethyl), B3C, B25H, desB27, B29K(N^εoctadecanedioyl-gGlu-2×OEG), desB30 Human Insulin] | 10.4 | 1.2 |  |  |  |
| I: Me2Gly-VCQHLCGSHLVEALYLVCGERGFHYPK([γGlu-C18 diacid]) / II: Me2Gly-IVEQCCTSCCSLEQLENYCN (disulfide I:2-II:9, I:6-II:6, I:18-II:19, II:5-II:10) [Example 7, A1(N^α,N^α-Dimethyl), A10C, A14E, B1G(N^α,N^α-dimethyl), B3C, B25H, desB27, B29K(N^εoctadecanedioyl-gGlu), desB30 Human Insulin] | 0.6 | 0.4 |  |  |  |
| I: Me2Gly-VCQHLCGSHLVEALYLVCGERGFHYTPK([AEEA-AEEA-γGlu-C18 diacid]) / II: Me2Gly-IVEQCCTSCCSLEQLENYCN (disulfide I:2-II:9, I:6-II:6, I:18-II:19, II:5-II:10) [Example 16, A1(N^α,N^α-Dimethyl), A10C, A14E, B1G(N^α,N^α-dimethyl), B3C, B25H, B29K(N^εoctadecanedioyl-gGlu-2×OEG), desB30 Human Insulin] | 58.0 | 42.7 |  |  |  |
| I: NMe2Phe-VCQHLCGSHLVEALHLVCGERGFHYTPK([AEEA-AEEA-γGlu-C18 diacid]) / II: Me2Gly-IVEQCCTSCCSLEQLENYCN (disulfide I:2-II:9, I:6-II:6, I:18-II:19, II:5-II:10) [Example 13, A1(N^α,N^α-Dimethyl), A10C, A14E, B1(N^α,N^α-dimethyl), B3C, B16H, B25H, B29K(N^εoctadecanedioyl-gGlu-2×OEG), desB30 Human Insulin] | 9.8 |  |  |  |  |
| I: NMe2Phe-VCQHLCGSHLVEALHLVCGERGFHYTPK([γGlu-C18 diacid]) / II: Me2Gly-IVEQCCTSCCSLEQLENYCN (disulfide I:2-II:9, I:6-II:6, I:18-II:19, II:5-II:10) [Example 4, A1(N^α,N^α-Dimethyl), A10C, A14E, B1(N^α,N^α-dimethyl), B3C, B16H, B25H, B29K(N^εoctadecanedioyl-gGlu), desB30 Human Insulin] | 8.7 | −0.4 |  |  |  |
| I: NMe2Phe-VCQHLCGSHLVEALYLVCGERGFHYPK([γGlu-C20 diacid]) / II: Me2Gly-IVEQCCTSCCSLEQLENYCN (disulfide I:2-II:9, I:6-II:6, I:18-II:19, II:5-II:10) [Example 18, A1(N^α,N^α-Dimethyl), A10C, A14E, B1(N^α,N^α-dimethyl), B3C, B25H, desB27, B29K(N^εeicosanedioyl-gGlu), desB30 Human Insulin] | 4.2 | 5.1 | 0.02 | 0.72 | 0.12 |
| I: NMe2Phe-VCQHLCGSHLVEALYLVCGERGFHYTPK([AEEA-AEEA-γGlu-C18 diacid]) / II: Me2Gly-IVEQCCTSCCSLEQLENYCN (disulfide I:2-II:9, I:6-II:6, I:18-II:19, II:5-II:10) [Example 12, A1(N^α,N^α-Dimethyl), A10C, A14E, B1(N^α,N^α-dimethyl), B3C, B25H, B29K(N^εoctadecanedioyl-gGlu-2×OEG), desB30 Human Insulin] |  |  |  |  | 0.077 |
| I: NMe2Phe-VCQHLCGSHLVEALYLVCGERGFHYTPK([γGlu-C18 diacid]) / II: Me2Gly-IVEQCCTSCCSLEQLENYCN (disulfide I:2-II:9, I:6-II:6, I:18-II:19, II:5-II:10) [Example 3, A1(N^α,N^α-Dimethyl), A10C, A14E, B1(N^α,N^α-dimethyl), B3C, B25H, B29K(N^εoctadecanedioyl-gGlu), desB30 Human Insulin] | 3.4 |  |  |  | 0.065 |
| I: NMe2Phe-VCQHLCGSHLVEALYLVCGERGFHYTPK([γGlu-C20 diacid]) / II: Me2Gly-IVEQCCTSCCSLEQLENYCN (disulfide I:2-II:9, I:6-II:6, I:18-II:19, II:5-II:10) [Example 19, A1(N^α,N^α-Dimethyl), A10C, A14E, B1(N^α,N^α-dimethyl), B3C, B25H, B29K(N^εeicosanedioyl-gGlu), desB30 Human Insulin] | 11.7 | 34.6 |  |  |  |
| I: {Phe(Nα-CONH2)}-VCQHLCGSHLVEALYLVCGERGFFYPK([γGlu-C18 diacid]) / II: Hydantoyl-IVEQCCTSCCSLEQLENYCN (disulfide I:2-II:9, I:6-II:6, I:18-II:19, II:5-II:10) [Example 36, A1(N^α-Carbamoyl), A10C, A14E, B1(N^α-carbamoyl), B3C, desB27, B29K(N^εoctadecanedioyl-gGlu), desB30 Human Insulin] |  |  | 0.01 | 0.7 |  |
